Results taken from the Immune Epitope Database (IEDB).

Assays:
HLA-A*02:01 [1] = assay: IEDB peptide-MHC binding, purified MHC/direct/fluorescence; filed as Kd, often an IC50 or EC50 that approximates it; ≥ and ≤ were set here for values at or beyond the usual limits of such assays
HLA-A*69:01 [2] = assay: as above; settings: source organism: Haemophilus influenzae
HLA-B*15:01 [3] = assay: as above; settings: source organism: Haemophilus influenzae
HLA-B*58:01 = assay: as above; settings: source organism: Haemophilus influenzae
HLA-A*02:03 [4] = assay: IEDB peptide-MHC binding, purified MHC/competitive/fluorescence; filed as Kd, often an IC50 or EC50 that approximates it; ≥ and ≤ were set here for values at or beyond the usual limits of such assays
HLA-A*02:06 = assay: as above
HLA-A*02:11 [5] = assay: as above
HLA-A*02:12 [6] = assay: as above
HLA-B*27:05 = assay: as above
HLA-A*24:02 = assay: IEDB peptide-MHC binding, purified MHC/competitive/fluorescence; ≥ and ≤ were set here for values at or beyond the usual limits of such assays; settings: source organism: Vaccinia virus
HLA-B*08:01 = assay: as above; settings: source organism: Vaccinia virus
HLA-B*15:01 [7] = assay: as above; settings: source organism: Vaccinia virus
HLA-A*02:03 [8] = assay: IEDB peptide-MHC binding, purified MHC/direct/fluorescence; filed as Kd, often an IC50 or EC50 that approximates it; ≥ and ≤ were set here for values at or beyond the usual limits of such assays; settings: source organism: Zaire ebolavirus
HLA-A*02:11 [9] = assay: as above
HLA-A*02:12 [10] = assay: as above
HLA-A*02:16 [11] = assay: as above; settings: source organism: Zaire ebolavirus
HLA-A*02:19 [12] = assay: as above; settings: source organism: Zaire ebolavirus
HLA-A*03:01 = assay: as above; settings: source organism: Zaire ebolavirus
HLA-A*23:01 = assay: as above; settings: source organism: Zaire ebolavirus
HLA-A*24:03 = assay: as above; settings: source organism: Zaire ebolavirus
HLA-A*29:02 = assay: as above; settings: source organism: Zaire ebolavirus
HLA-A*68:02 = assay: as above; settings: source organism: Zaire ebolavirus
HLA-B*40:01 = assay: as above; settings: source organism: Ebola virus - Eckron (Zaire, 1976)
HLA-A*02:01 [13] = assay: IEDB peptide-MHC binding, purified MHC/competitive/fluorescence; filed as Kd, often an IC50 or EC50 that approximates it; ≥ and ≤ were set here for values at or beyond the usual limits of such assays
HLA-A*26:01 = assay: as above; settings: source organism: Zaire ebolavirus
HLA-A*69:01 [14] = assay: as above
HLA-B*15:01 [15] = assay: as above
HLA-B*15:17 = assay: as above
HLA-B*18:01 = assay: as above
HLA-B*27:03 = assay: as above; settings: source organism: Zaire ebolavirus
HLA-B*39:01 = assay: as above; settings: source organism: Zaire ebolavirus
HLA-B*46:01 = assay: as above; settings: source organism: Zaire ebolavirus
HLA-B*51:01 = assay: as above; settings: source organism: Zaire ebolavirus
HLA-B*57:01 = assay: as above; settings: source organism: Zaire ebolavirus
HLA-A*01:01 = assay: as above; settings: source organism: Human immunodeficiency virus 1
HLA-A*11:01 = assay: as above; settings: source organism: Human immunodeficiency virus 1
HLA-A*26:02 = assay: as above; settings: source organism: Human immunodeficiency virus 1
HLA-A*30:01 = assay: as above; settings: source organism: Human immunodeficiency virus 1
HLA-A*02:16 [16] = assay: as above; settings: source organism: Human immunodeficiency virus 1
HLA-A*02:19 [17] = assay: as above; settings: source organism: Human immunodeficiency virus 1
[18] = source organism: Haemophilus influenzae 3655
[19] = source organism: Zaire ebolavirus
[20] = source organism: Orthohantavirus hantanense
[21] = source organism: Human immunodeficiency virus 1

Sequence: LMTAISQGI
- Kd (HLA-A*02:01 [1]; source organism: Haemophilus influenzae): 29.5 nM
- Kd (HLA-A*69:01 [2]): 1720 nM
- Kd (HLA-B*15:01 [3]): 2000 nM
- Kd (HLA-B*58:01): 367 nM
- Kd (HLA-A*02:03 [4]; [18]): ≤ 0.1 nM
- Kd (HLA-A*02:06; [18]): ≤ 0.1 nM
- Kd (HLA-A*02:11 [5]; [18]): ≤ 0.1 nM
- Kd (HLA-A*02:12 [6]; [18]): 1.15 nM

Sequence: YRIWLEQNK
- Kd (HLA-B*27:05; source organism: Mycobacterium tuberculosis C): 82.5 nM

Sequence: YSKDSRNKL
- IC50 (HLA-A*24:02): 19700 nM
- IC50 (HLA-B*08:01): ≥ 77100 nM
- IC50 (HLA-B*15:01 [7]): ≥ 255000 nM

Sequence: GRAGVVPRY
- Kd (HLA-B*27:05; source organism: Mycobacterium tuberculosis variant bovis BCG str. Pasteur 1173P2): 230 nM

Sequence: KEGKLQCRI
- Kd (HLA-A*02:03 [8]): ≥ 20000 nM
- Kd (HLA-A*02:11 [9]; [19]): ≥ 20000 nM
- Kd (HLA-A*02:12 [10]; [19]): ≥ 20000 nM
- Kd (HLA-A*02:16 [11]): ≥ 20000 nM
- Kd (HLA-A*02:19 [12]): ≥ 20000 nM
- Kd (HLA-A*03:01): ≥ 20000 nM
- Kd (HLA-A*23:01): ≥ 20000 nM
- Kd (HLA-A*24:03): ≥ 20000 nM
- Kd (HLA-A*29:02): ≥ 20000 nM
- Kd (HLA-A*68:02): ≥ 20000 nM
- Kd (HLA-B*40:01): ≥ 20000 nM
- Kd (HLA-A*02:01 [13]; [19]): ≥ 20000 nM
- Kd (HLA-A*26:01): ≥ 20000 nM
- Kd (HLA-A*69:01 [14]; [19]): ≥ 20000 nM
- Kd (HLA-B*15:01 [15]; [19]): ≥ 20000 nM
- Kd (HLA-B*15:17; [19]): ≥ 20000 nM
- Kd (HLA-B*18:01; [19]): ≥ 20000 nM
- Kd (HLA-B*27:03): ≥ 20000 nM
- Kd (HLA-B*39:01): ≥ 20000 nM
- Kd (HLA-B*46:01): ≥ 20000 nM
- Kd (HLA-B*51:01): ≥ 20000 nM
- Kd (HLA-B*57:01): ≥ 20000 nM

Sequence: WLIEPCKLL
- Kd (HLA-A*02:01 [1]; [20]): 24.3 nM
- Kd (HLA-A*02:11 [9]; [20]): 5 nM
- Kd (HLA-A*02:12 [10]; [20]): 139 nM

Sequence: KRYLQAKSE
- Kd (HLA-B*27:05; source organism: Escherichia coli 536): 114 nM

Sequence: RSLFNTIAVLY
- Kd (HLA-A*01:01): ≥ 20000 nM
- Kd (HLA-A*02:03 [4]; [21]): 356 nM
- Kd (HLA-A*02:06; [21]): 676 nM
- Kd (HLA-A*11:01): ≥ 20000 nM
- Kd (HLA-A*26:02): 1350 nM
- Kd (HLA-A*30:01): ≥ 20000 nM
- Kd (HLA-B*15:01 [15]; [21]): 3660 nM
- Kd (HLA-B*15:17; [21]): 92.3 nM
- Kd (HLA-B*18:01; [21]): 1490 nM

Sequence: GLGQHIYET
- Kd (HLA-A*02:01 [13]; [21]): 3680 nM
- Kd (HLA-A*02:03 [4]; [21]): 41 nM
- Kd (HLA-A*02:06; [21]): 119 nM
- Kd (HLA-A*02:11 [5]; [21]): 9.55 nM
- Kd (HLA-A*02:12 [6]; [21]): 75.5 nM
- Kd (HLA-A*02:16 [16]): 2.03 nM
- Kd (HLA-A*02:19 [17]): 771 nM
- Kd (HLA-A*69:01 [14]; [21]): ≥ 20000 nM
